Source: the supplement of paper PMC12764529
± gives the half width of the 95% confidence interval.

Key:
[1] = folding stability dG unfold from chymotrypsin proteolysis; higher = more stable
Summary of the method: (§1)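 Only designs with AlphaFold2 dimer inter-PAE above 15 were retained; each was a mini-protein under 80 residues with no cysteine, in a PA-tagged cDNA display construct. After digestion with trypsin and chymotrypsin and sequencing, K50 was inferred by Bayesian fitting of counts, and unfolding free energy was derived per protease or combined against a sequence-predicted unfolded-state K50 and a shared folded-state K50.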

[2] = folding stability dG unfold from trypsin proteolysis; higher = more stable
Summary of the method: as §1

[3] = folding stability dG unfold (combined trypsin and chymotrypsin); higher = more stable
Summary of the method: as §1

Sequence | folding stability dG unfold [1] [kcal/mol] | folding stability dG unfold [2] [kcal/mol] | folding stability dG unfold [3] [kcal/mol]
SAGGSAGGSAMKKVTITLLDPRNGKEHTVTLPADITEEEAKAAAEAVAAERGWEVLSIEFEPSAGGSAGGSA [r18_322_JUSTAS] | 3.43 ± 0.1 | 3.61 ± 0.072 | 3.57 ± 0.071
SAGGSAGGSAGGMLSTNVTRTITLTYFDPNGSKPIETQTVTVTTFVEIFQEPVGNWTAASAGGSAGGSAGGS [r10_50_JUSTAS] | 0.759 ± 0.21 | 0.789 ± 0.08 | 0.786 ± 0.15
SAGGSAGGSAGGKVEEVEKLAEELEKELGVDIGEVEVLDHPDKFRYRIRIPDLDLDLEFSAGGSAGGSAGGS [r10_161_TrMRF] | -0.0226 ± 0.17 | -0.529 ± 0.18 | -0.103 ± 0.11
SMSTNLVVKEKLIPPGVLVVTYKKDGKPVKVETKVVVIPPQLVVEEVLYPGGKLALKTYDPLTGTPSFELSA [r9_343_JUSTAS] | 0.644 ± 0.28 | -0.122 ± 0.14 | 0.337 ± 0.29
SAGGSAGGSAMPVKVKVTVKARFGDKEFELEFEIEVGPGATEEDIKNLVTEKYPGFEEVELESAGGSAGGSA [r18_195_JUSTAS] | 2.16 ± 0.11 | 1.92 ± 0.083 | 2.16 ± 0.12
SAGGMKPGQPWHEIEVQREIDLPPGQISAEEIADLIAELFPGFRVEDFRIEFTGKKWRIDVTIYIPYSAGGS [r8_202_TrROS] | 3.49 ± 0.039 | 2.56 ± 0.073 | 3.14 ± 0.11
SSPKILTESELKITIPMTDPETGKPINLEVTIPLLVDPATGTVEVLEIKITGPEEVQEILKKLIEKLIKESA [r9_619_JUSTAS] | 2.15 ± 0.12 | 2.14 ± 0.23 | 2.11 ± 0.22
SAGGDLKIEIEPYRMGDYPMYEVKIEDPDGKDITLWMNSNNGQMMVFYPNGKPRRVDSAEDVLEALKSAGGS [r8_168_TrROS] | 0.185 ± 0.16 | -0.243 ± 0.16 | 0.149 ± 0.1
SAGGSAGGSPVLVRVYARDEDGNETPVAEIALPVENDNPEEAAKKAREIAKKLGVKEYRVEIESAGGSAGGS [r12_569_TrMRF] | 1.56 ± 0.046 | 1.37 ± 0.031 | 1.48 ± 0.04
SAGGSAGGSAGWYFPIDELQKEHPNMSPETIADFFQKDGYKIEVEPVGPEPWVKIEPPEKSAGGSAGGSAGG [r11_707_TrROS] | -0.513 ± 0.67 | 0.658 ± 0.07 | 0.242 ± 0.12
SAGGSAGGSAGGPNPDMKFEIVTIKVPPDEVPKSEPIEDPDGHNFFLHFDGNTYTIWRMDSAGGSAGGSAGG [r7_97_TrROS] | 1.39 ± 0.42 | 0.987 ± 0.086 | 0.933 ± 0.23
SAGGSAGGSAGKWIMFDSPEDIEEKLKENGYRIKNIEPQKMGGGPHVYVPIEIKPPPEDKSAGGSAGGSAGG [r11_141_TrROS] | 0.43 ± 0.39 | -0.506 ± 0.54 | 0.155 ± 0.38
SAGERKVLVIENLTSEELIEAIREALEKSPPGLLILVPDPEKAEEIRRAFPGIPLVVLNRETGELVEVESAG [r5_391_TrMRF] | 3.46 ± 0.044 | 3 ± 0.12 | 3.33 ± 0.099
SAGGDKNAKPIKPITISFTLEDGSKKTITATFYKDAVIVEITYINPKTGKPFTKTFVFKKKGVKLLLSAGGS [r16_419_TrMRF] | 3.19 ± 0.094 | 2.43 ± 0.096 | 3.02 ± 0.21
SAGGEMVTIRVRAPDPEKLIEALREEFPEGLTIRPFPRPTPDGYEVLIVVPAERPEELLEAVERAIGSAGGS [r16_43_TrMRF] | 2.17 ± 0.022 | 2.01 ± 0.075 | 2.13 ± 0.068
SAGGSAMTVKVRLRVRRRVFNEDGELVAEEELELEVEVEVRPPPPPPPPPLTAEELAEKLGLEPEDSAGGSA [r15_572_TrROS_Hall] | 3.37 ± 0.074 | 2.52 ± 0.093 | 3.19 ± 0.39
SAGKVKATYDPKTGTLTITFNVKKNEKINVKANIKIPEYNATVEKVETNGAKKDNEPVTVKIKLKNLKKSAG [r5_737_TrMRF] | 2.75 ± 0.12 | 1.06 ± 0.076 | 1.94 ± 0.54
SAGDVPVPATFEVELPGDGTARVTVVRHPGAAPGGFDTVRVEFRPGPTSSVTLTYRVPPGSAPVPFLGGSAG [r5_47_TrMRF] | 1.33 ± 0.31 | 0.535 ± 0.16 | 0.965 ± 0.19
SAGSSLTTTSTTTFPGTVRVTTKTPDGKTFTLTVSVSTVPTPDGRVVPSVTTTMDPAARSSNVSPEVDRSAG [r5_462_JUSTAS] | -0.0322 ± 0.075 | -0.463 ± 0.17 | -0.144 ± 0.086
SKEKVKVEIKLTVTKVFPPEELEKDPKTGKYRNKDTGKWFEPPKVVVKELTLTIEMSKEEVEKLLKELLKSA [r9_165_TrROS_Hall] | 2.63 ± 0.048 | 1.52 ± 0.059 | 2.29 ± 0.095
SAGGSAGGSAATKQITYTPPGSNRTYSFTATLTEEDPVTGRKLLELTLPDGTPITLPEGELGSAGGSAGGSA [r18_334_JUSTAS] | 0.0349 ± 0.08 | 0.191 ± 0.061 | 0.163 ± 0.067

Sequence | folding stability dG unfold [1] [kcal/mol] | folding stability dG unfold [2] [kcal/mol] | folding stability dG unfold [3] [kcal/mol]
SAGGTLRNMPVEQIAKRLQNHGYEIKVENIRHNEDRVRIKIEVERRNKNGKPHEEVKISIEIPDPDDFSAGG [r13_566_TrROS] | 0.403 ± 0.15 | 0.461 ± 0.23 | 0.559 ± 0.27
SAGGSADADDVTIVINMFRNPNNKGWFFRIEIQDPDKEREIFMPFDDIPKFQEAGLKIEITEWYPFSAGGSA [r15_783_TrROS] | 3.29 ± 0.038 | 2.41 ± 0.068 | 3.03 ± 0.086
SAGGMIIIEGMSEEEIKNLIKEAIKKGEKVKKIVIRVNGKLYLITVDAKTKKITVEEIPLEELKKKKSAGGS [r16_481_TrROS_Hall] | 1.85 ± 0.067 | 0.692 ± 0.095 | 1.4 ± 0.21
SAGGPPVAEIRVTEEDPETGVVRMEATLPEAPRPVRATGTRLDPGGGTVLVTVTDPDGGPDTTTTLAASAGG [r13_337_JUSTAS] | 0.221 ± 0.12 | -0.308 ± 0.1 | 0.0684 ± 0.12
SAGGSAGGKPKPVLRTFEVRDPATGELYKVELVVLDDGSVRALVTRRDGRKREFTFDAPASLILSAGGSAGG [r6_588_TrMRF] | 2.08 ± 0.042 | 1.59 ± 0.019 | 1.88 ± 0.047
SAGGSAMTIEIEAPVPAGVEVDATALFVTPDGYLYLAEVRSVGPGWARITIPVYRFDDNLDDPDFLSAGGSA [r15_909_TrMRF] | 2.19 ± 0.042 | 2.04 ± 0.045 | 2.17 ± 0.051
SAGGNINDIAKKLGLPPGGMIMIKDFSLEWHRMPMRVPEEDNDKPKEEKEVPMPMYKAEIKISLFPADSAGG [r13_482_TrROS] | 2 ± 0.13 | 0.955 ± 0.056 | 1.52 ± 0.22
SAGGAPVTVREEELPENSKLITIEYPDGLTLEVLEYPDKVLVREWDTATGKELSSRTLTHEELEKLLSAGGS [r8_476_JUSTAS] | 2.41 ± 0.034 | 1.81 ± 0.052 | 2.19 ± 0.14
SAKRVNVEIWIPGDWDEIQEIAEDINFPVEIERNPDKPDMYRITFTFPTPEKAPKILDALNKHGMQIEISAG [r14_745_TrROS] | 1.89 ± 0.081 | 1.33 ± 0.063 | 1.64 ± 0.17
SAGGSAGGMVETKLVESEELPGNRRVLTYRVTEPDSLYRVTVELTLDPSGTVLSSKTTTEPIPLSAGGSAGG [r6_20_JUSTAS] | 1.12 ± 0.093 | 0.846 ± 0.053 | 1.04 ± 0.073
SAGGSAGGSAGMVTRRMTPEEAEKFIADLPSDWSVEEISPLPENDIVEIKIKVEPPFKLQSAGGSAGGSAGG [r17_98_JUSTAS] | 1.76 ± 0.035 | -0.199 ± 0.09 | 1.28 ± 0.097
SSPIMIKMKDPDDREKIEKAVEEINDETGMSIRPESVDPNGKYTFMINMPPEHQKKILKALREAGNIEIVSA [r9_472_TrROS] | 1.1 ± 0.15 | 0.289 ± 0.21 | 0.874 ± 0.16
SAGGSAGGKKKVLILPKGKKKEYTIEEAKKILKEKLPENAKVRLLETGKEYPVKDLLKKLGIDLSAGGSAGG [r6_936_TrMRF] | -0.411 ± 0.65 | -0.276 ± 0.28 | -0.207 ± 0.45
SAGMEPVSIKITKIEKTPENKDYVIVTVTPPDGVPTEIKVPIEFYKSGKLKNATAEELVKLFPEYKLESAGG [r19_74_JUSTAS] | 2.68 ± 0.045 | 1.13 ± 0.065 | 2.28 ± 0.12
SAGGSAMKLVLTFPEGLPEIPLEELAKAIEDALPEDFEVKEIKVEPLPDGGLRLTFIVNDEEVEILSAGGSA [r15_451_TrMRF] | 2.52 ± 0.017 | 2.52 ± 0.062 | 2.54 ± 0.048
SATFKPGETVTIDELTIDGATITKVTVTVNADGTITITATIKPAPPPPPPPEVVRNPETGKTYPAGEVKDSA [r9_603_TrROS_Hall] | 0.615 ± 0.087 | 1.87 ± 0.19 | 1.34 ± 0.23
SAGKMYLIVIKVDGKEYVIVIPEEEMSEEEIRKLISEELGISEEEVEIVEIVPVEPGESVEEALKKALESAG [r5_900_TrROS_Hall] | 4.23 ± 0.074 | 2.77 ± 0.14 | 3.94 ± 0.15
SAGGSAGGSSVEYTFLSKNPEEAKKKFEEKIKEIEEKGEGKIEKAEFTIVSPDNPEYLKLISSSAGGSAGGS [r12_551_JUSTAS] | 0.136 ± 0.26 | 0.213 ± 0.05 | 0.259 ± 0.13
SAGGELKLLFNFPSKEEAEEFAEALKKAYPNFEVEVEYDPETGLFYLTLKPKEIPPLSPEELEKLLESAGGS [r16_674_TrMRF] | 4.87 ± 0.056 | 2.96 ± 0.085 | 4.7 ± 0.071
SAGGSAGGSEYYIYIQIDKNGKIEIVDVVPPGEPMEDMPPEQYDHTIMFPFESPEDALAEILKSAGGSAGGS [r12_452_TrROS] | 0.731 ± 0.022 | 0.606 ± 0.019 | 0.719 ± 0.075
SAGAPSTREFEILELVPLPPGTTAEELRATLEREVELPDDSVARIRVRAVFLSPGPAFALVLYRVEVRESAG [r5_939_TrMRF] | 3.314 ± 0.015 | 3.15 ± 0.11 | 3.22 ± 0.12
